{"source": "the supplement of paper PMC10567573", "parents": {"B1": {"name": "INTS3 (parent)", "chain": "EEITEESLEESVGKPLYLIFRNLC"}}}
{"variants_of": "B1", "assay": "protein stability index of a GFP-peptide fusion (GPS, HEK-293T) (PSI 1-6); higher = more stable", "conditions": "c terminus: a fixed tail appended"}
{"variant": "ELITEESLEESVGKPLYLIFRNLC", "note": "[E2L]", "protein stability index": 2.11}
{"variant": "EPITEESLEESVGKPLYLIFRNLC", "note": "[E2P]", "protein stability index": 2.51}
{"variant": "EMITEESLEESVGKPLYLIFRNLC", "note": "[E2M]", "protein stability index": 2.1}
{"variant": "EAITEESLEESVGKPLYLIFRNLC", "note": "[E2A]", "protein stability index": 1.98}
{"variant": "EKITEESLEESVGKPLYLIFRNLC", "note": "[E2K]", "protein stability index": 2.02}
{"variant": "ENITEESLEESVGKPLYLIFRNLC", "note": "[E2N]", "protein stability index": 2.9}
{"variant": "EHITEESLEESVGKPLYLIFRNLC", "note": "[E2H]", "protein stability index": 2.32}
{"variant": "EVITEESLEESVGKPLYLIFRNLC", "note": "[E2V]", "protein stability index": 2.35}
{"variant": "EYITEESLEESVGKPLYLIFRNLC", "note": "[E2Y]", "protein stability index": 1.69}
{"variant": "EQITEESLEESVGKPLYLIFRNLC", "note": "[E2Q]", "protein stability index": 2.52}
{"variant": "EGITEESLEESVGKPLYLIFRNLC", "note": "[E2G]", "protein stability index": 2.56}
{"variant": "ETITEESLEESVGKPLYLIFRNLC", "note": "[E2T]", "protein stability index": 2.68}
{"variant": "ECITEESLEESVGKPLYLIFRNLC", "note": "[E2C]", "protein stability index": 2.48}
{"variant": "ERITEESLEESVGKPLYLIFRNLC", "note": "[E2R]", "protein stability index": 2.93}
{"variant": "ESITEESLEESVGKPLYLIFRNLC", "note": "[E2S]", "protein stability index": 2.58}
{"variant": "EWITEESLEESVGKPLYLIFRNLC", "note": "[E2W]", "protein stability index": 1.74}
{"variant": "EFITEESLEESVGKPLYLIFRNLC", "note": "[E2F]", "protein stability index": 2.38}
{"variant": "EIITEESLEESVGKPLYLIFRNLC", "note": "[E2I]", "protein stability index": 1.91}
{"variant": "EDITEESLEESVGKPLYLIFRNLC", "note": "[E2D]", "protein stability index": 2.86}
{"variant": "EELTEESLEESVGKPLYLIFRNLC", "note": "[I3L]", "protein stability index": 3}
{"variant": "EENTEESLEESVGKPLYLIFRNLC", "note": "[I3N]", "protein stability index": 3.25}
{"variant": "EEATEESLEESVGKPLYLIFRNLC", "note": "[I3A]", "protein stability index": 3.14}
{"variant": "EEDTEESLEESVGKPLYLIFRNLC", "note": "[I3D]", "protein stability index": 3.3}
{"variant": "EEPTEESLEESVGKPLYLIFRNLC", "note": "[I3P]", "protein stability index": 3.2}
{"variant": "EEHTEESLEESVGKPLYLIFRNLC", "note": "[I3H]", "protein stability index": 3.67}
{"variant": "EERTEESLEESVGKPLYLIFRNLC", "note": "[I3R]", "protein stability index": 2.94}
{"variant": "EEKTEESLEESVGKPLYLIFRNLC", "note": "[I3K]", "protein stability index": 3.04}
{"variant": "EEQTEESLEESVGKPLYLIFRNLC", "note": "[I3Q]", "protein stability index": 3.36}
{"variant": "EESTEESLEESVGKPLYLIFRNLC", "note": "[I3S]", "protein stability index": 2.84}
{"variant": "EEMTEESLEESVGKPLYLIFRNLC", "note": "[I3M]", "protein stability index": 3.29}
{"variant": "EEFTEESLEESVGKPLYLIFRNLC", "note": "[I3F]", "protein stability index": 2.79}
{"variant": "EEWTEESLEESVGKPLYLIFRNLC", "note": "[I3W]", "protein stability index": 2.18}
{"variant": "EEYTEESLEESVGKPLYLIFRNLC", "note": "[I3Y]", "protein stability index": 2.1}
{"variant": "EECTEESLEESVGKPLYLIFRNLC", "note": "[I3C]", "protein stability index": 2.65}
{"variant": "EEGTEESLEESVGKPLYLIFRNLC", "note": "[I3G]", "protein stability index": 3.13}
{"variant": "EEVTEESLEESVGKPLYLIFRNLC", "note": "[I3V]", "protein stability index": 3.16}
{"variant": "EEETEESLEESVGKPLYLIFRNLC", "note": "[I3E]", "protein stability index": 3.82}
{"variant": "EETTEESLEESVGKPLYLIFRNLC", "note": "[I3T]", "protein stability index": 2.9}
{"variant": "EEITECSLEESVGKPLYLIFRNLC", "note": "[E6C]", "protein stability index": 1.83}
{"variant": "EEITELSLEESVGKPLYLIFRNLC", "note": "[E6L]", "protein stability index": 1.69}
{"variant": "EEITESSLEESVGKPLYLIFRNLC", "note": "[E6S]", "protein stability index": 2.27}
{"variant": "EEITEYSLEESVGKPLYLIFRNLC", "note": "[E6Y]", "protein stability index": 2.39}
{"variant": "EEITEHSLEESVGKPLYLIFRNLC", "note": "[E6H]", "protein stability index": 2.44}
{"variant": "EEITEASLEESVGKPLYLIFRNLC", "note": "[E6A]", "protein stability index": 2.01}
{"variant": "EEITEDSLEESVGKPLYLIFRNLC", "note": "[E6D]", "protein stability index": 2.7}
{"variant": "EEITEISLEESVGKPLYLIFRNLC", "note": "[E6I]", "protein stability index": 2.06}
{"variant": "EEITEQSLEESVGKPLYLIFRNLC", "note": "[E6Q]", "protein stability index": 2.56}
{"variant": "EEITEMSLEESVGKPLYLIFRNLC", "note": "[E6M]", "protein stability index": 2}
{"variant": "EEITEVSLEESVGKPLYLIFRNLC", "note": "[E6V]", "protein stability index": 1.76}
{"variant": "EEITEFSLEESVGKPLYLIFRNLC", "note": "[E6F]", "protein stability index": 2.23}
{"variant": "EEITETSLEESVGKPLYLIFRNLC", "note": "[E6T]", "protein stability index": 2.02}
{"variant": "EEITEPSLEESVGKPLYLIFRNLC", "note": "[E6P]", "protein stability index": 2.49}
{"variant": "EEITENSLEESVGKPLYLIFRNLC", "note": "[E6N]", "protein stability index": 2.29}
{"variant": "EEITEKSLEESVGKPLYLIFRNLC", "note": "[E6K]", "protein stability index": 1.8}
{"variant": "EEITEGSLEESVGKPLYLIFRNLC", "note": "[E6G]", "protein stability index": 2.38}
{"variant": "EEITEWSLEESVGKPLYLIFRNLC", "note": "[E6W]", "protein stability index": 1.96}
{"variant": "EEITERSLEESVGKPLYLIFRNLC", "note": "[E6R]", "protein stability index": 1.99}
{"variant": "EEITCESLEESVGKPLYLIFRNLC", "note": "[E5C]", "protein stability index": 2.14}
{"variant": "EEITMESLEESVGKPLYLIFRNLC", "note": "[E5M]", "protein stability index": 1.89}
{"variant": "EEITQESLEESVGKPLYLIFRNLC", "note": "[E5Q]", "protein stability index": 2.37}
{"variant": "EEITKESLEESVGKPLYLIFRNLC", "note": "[E5K]", "protein stability index": 2.31}
{"variant": "EEITIESLEESVGKPLYLIFRNLC", "note": "[E5I]", "protein stability index": 1.56}
{"variant": "EEITWESLEESVGKPLYLIFRNLC", "note": "[E5W]", "protein stability index": 1.85}
{"variant": "EEITLESLEESVGKPLYLIFRNLC", "note": "[E5L]", "protein stability index": 2.1}
{"variant": "EEITNESLEESVGKPLYLIFRNLC", "note": "[E5N]", "protein stability index": 2.64}
{"variant": "EEITPESLEESVGKPLYLIFRNLC", "note": "[E5P]", "protein stability index": 1.98}
{"variant": "EEITYESLEESVGKPLYLIFRNLC", "note": "[E5Y]", "protein stability index": 2.03}
{"variant": "EEITDESLEESVGKPLYLIFRNLC", "note": "[E5D]", "protein stability index": 2.72}
{"variant": "EEITHESLEESVGKPLYLIFRNLC", "note": "[E5H]", "protein stability index": 2.62}
{"variant": "EEITAESLEESVGKPLYLIFRNLC", "note": "[E5A]", "protein stability index": 2.4}
{"variant": "EEITVESLEESVGKPLYLIFRNLC", "note": "[E5V]", "protein stability index": 1.72}
{"variant": "EEITFESLEESVGKPLYLIFRNLC", "note": "[E5F]", "protein stability index": 1.61}
{"variant": "EEITSESLEESVGKPLYLIFRNLC", "note": "[E5S]", "protein stability index": 2.5}
{"variant": "EEITTESLEESVGKPLYLIFRNLC", "note": "[E5T]", "protein stability index": 2.37}
{"variant": "EEITGESLEESVGKPLYLIFRNLC", "note": "[E5G]", "protein stability index": 2.09}
{"variant": "EEITRESLEESVGKPLYLIFRNLC", "note": "[E5R]", "protein stability index": 1.96}
{"variant": "NEITEESLEESVGKPLYLIFRNLC", "note": "[E1N]", "protein stability index": 2.88}
{"variant": "TEITEESLEESVGKPLYLIFRNLC", "note": "[E1T]", "protein stability index": 2.6}
{"variant": "PEITEESLEESVGKPLYLIFRNLC", "note": "[E1P]", "protein stability index": 2.27}
{"variant": "LEITEESLEESVGKPLYLIFRNLC", "note": "[E1L]", "protein stability index": 2.46}
{"variant": "YEITEESLEESVGKPLYLIFRNLC", "note": "[E1Y]", "protein stability index": 2.3}
{"variant": "MEITEESLEESVGKPLYLIFRNLC", "note": "[E1M]", "protein stability index": 2.45}
{"variant": "QEITEESLEESVGKPLYLIFRNLC", "note": "[E1Q]", "protein stability index": 3.06}
{"variant": "SEITEESLEESVGKPLYLIFRNLC", "note": "[E1S]", "protein stability index": 2.58}
{"variant": "HEITEESLEESVGKPLYLIFRNLC", "note": "[E1H]", "protein stability index": 2.67}
{"variant": "IEITEESLEESVGKPLYLIFRNLC", "note": "[E1I]", "protein stability index": 2.22}
{"variant": "KEITEESLEESVGKPLYLIFRNLC", "note": "[E1K]", "protein stability index": 2.51}
{"variant": "VEITEESLEESVGKPLYLIFRNLC", "note": "[E1V]", "protein stability index": 2.31}
{"variant": "GEITEESLEESVGKPLYLIFRNLC", "note": "[E1G]", "protein stability index": 2.69}
{"variant": "WEITEESLEESVGKPLYLIFRNLC", "note": "[E1W]", "protein stability index": 2.52}
{"variant": "CEITEESLEESVGKPLYLIFRNLC", "note": "[E1C]", "protein stability index": 2.29}
{"variant": "FEITEESLEESVGKPLYLIFRNLC", "note": "[E1F]", "protein stability index": 1.8}
{"variant": "DEITEESLEESVGKPLYLIFRNLC", "note": "[E1D]", "protein stability index": 2.68}
{"variant": "REITEESLEESVGKPLYLIFRNLC", "note": "[E1R]", "protein stability index": 2.2}
